Values of other authors in article PMC4166557.

Target: MLL MBM1 4-15 (Homo sapiens) (UniProt Q03164)

- Kd: 56 nM
Substance: menin (from UniProt O00255)
